Values quoted from earlier work, collected in PMC6620384.

Target: UNC5B-Fc (UniProt Q8IZJ1)
Test: SPR

Sequence of UniProt Q8IZJ1 (Q8IZJ1 27-377): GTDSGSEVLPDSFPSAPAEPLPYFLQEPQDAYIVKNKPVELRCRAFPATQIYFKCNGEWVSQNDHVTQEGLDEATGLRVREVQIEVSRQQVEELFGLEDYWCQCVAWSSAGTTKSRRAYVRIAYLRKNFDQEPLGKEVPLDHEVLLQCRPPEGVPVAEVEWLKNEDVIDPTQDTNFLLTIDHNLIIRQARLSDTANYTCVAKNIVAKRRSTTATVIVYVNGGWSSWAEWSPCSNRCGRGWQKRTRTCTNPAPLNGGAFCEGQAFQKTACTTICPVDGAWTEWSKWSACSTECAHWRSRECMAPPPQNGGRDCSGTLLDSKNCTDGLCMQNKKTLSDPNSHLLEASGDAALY

With Robo4-Fc (from UniProt Q8WZ75) as the substance, how does the Kd read?
The Kd was 12 nM.
